Target: microtubule polymerized from porcine brain tubulin, stabilized with paclitaxel (porcine)
Assay: co-sedimentation

purified γ stalk–LC1 complex (from UniProt Q9XHH2 1-198)
Bmax/Kd: 0.053 | Kd: 19 µM
